Data from paper PMC10714992, “A monoclonal antibody targeting spore wall protein 1 inhibits the proliferation of Nosema bombycis in Bombyx mori” (Microbiology Spectrum, 2023).

B1: recombinant scFvG9 from the baculovirus expression system (scFv, V domains shown)
VH: QVQLQQSGAELARPGASVKMSCKASGYTFTGFSIHWVKQRPGQGLEWIGYINPSSAYTKYNQNFKDKATLTADKSSSTAYMQLNSLTSDDSAVYYCAYRYDVGDYWGQGTSVTVSS
VL: DIVITQSPSSLAVSAGEKVTLSCKSSQSLFNSRTRKNYLAWYQQKPGQSPKLLIYWASTRESGVPDRFTGSGSGTDFTLTISSVQAEDLAVYYCKQSYYLWTFGGGAKLEIK
notes: variable domain of the heavy chain of m1; (G4S)3 linker; variable domain of the light chain of m1; The construct contains a signal peptide and a 6xHis tag; Detected in the ELISA by an anti-6xHis antibody; also called rscFvG9; pFast-rscFvG9; source: Bac-to-Bac baculovirus system, insect cells (Sf-900 III / Sf9), serum-free medium, purified (Ni-NTA); not shown: His6, C-terminal, kept
B2: scFvG9 expressed in scFvG9-Neo transgenic BmE cells (scFv, V domains shown)
VH: B1 VH
VL: B1 VL
notes: variable domain of the heavy chain of m1; (G4S)3 linker; variable domain of the light chain of m1; The construct encodes an N-terminal secretion signal peptide from the CL40 anti-EBV/HHV-4 gHgL immunoglobulin heavy chain
B3: NscFvG9 expressed in NscFvG9 transgenic silkworm (scFv, V domains shown)
VH: B1 VH
VL: B1 VL
notes: variable domain of the heavy chain of m1; (G4S)3 linker; variable domain of the light chain of m1; Same IE1-NscFvG9-SV40 cassette as m4 (no signal peptide), in pBac[3xP3-EGFP]; also called NscFv9; source: transgenic silkworm (Bombyx mori), cell lysate
B4: scFvG9 expressed in scFvG9 transgenic silkworm (scFv, V domains shown)
VH: B1 VH
VL: B1 VL
notes: variable domain of the heavy chain of m1; (G4S)3 linker; variable domain of the light chain of m1; Same IE1-scFvG9-SV40 cassette as m3, which encodes a secretion signal peptide; also called scFv9; source: transgenic silkworm (Bombyx mori), hemolymph
B5: G9 intact antibody expressed in G9-Neo transgenic BmE cells (antibody, V domains shown)
VH: B1 VH
VL: B1 VL
notes: as the heavy chain of m1 (G9H); as the light chain of m1 (G9L); G9H was amplified with a signal peptide at the 5' end and a 6xHis tag at the 3' end; The light chain was made 'similarly', so it is not clear whether it also carries them; IE1 promoter; also called G9H + G9L
B6: recombinant G9 intact antibody (rG9H + rG9L) from the baculovirus expression system (antibody, V domains shown)
VH: B1 VH
VL: B1 VL
notes: as the heavy chain of m1 (rG9H); as the light chain of m1 (rG9L); rG9H contains a signal peptide at the 5' end and is driven by the polyhedrin promoter; rG9L is driven by the p10 promoter; Detected in the ELISA by an anti-6xHis antibody; also called pFast-rG9; source: Bac-to-Bac baculovirus system, insect cells (Sf-900 III / Sf9), serum-free medium, purified (Ni-NTA); not shown: His6, C-terminal, …
B7: NscFvG9 expressed in NscFvG9-Neo transgenic BmE cells (scFv, V domains shown)
VH: B1 VH
VL: B1 VL
notes: variable domain of the heavy chain of m1; (G4S)3 linker; variable domain of the light chain of m1; scFvG9 with the signal peptide of VH removed, expressed intracellularly; also called scFv without the secretory signal peptide
B8: G9 intact antibody expressed in G9 transgenic silkworm (antibody, V domains shown)
VH: B1 VH
VL: B1 VL
notes: as the heavy chain of m1 (G9H); as the light chain of m1 (G9L); Same IE1-G9H-SV40 + IE1-G9L-SV40 cassettes as m2, in pBac[A3-EGFP]; G9H has a signal peptide at the 5' end; It is not clear whether the light chain also carries a signal peptide and His tag; source: transgenic silkworm (Bombyx mori), hemolymph and cell lysate

Experiments:
[1] = target: T1, recombinant GST-SWP1 fusion protein (Nosema bombycis CVCC 102059, UniProt B3STN5); test: ELISA; indirect ELISA: plates coated with recombinant GST-SWP1 (0.3 ug/well) overnight at 4 C, recombinant 6xHis-tagged antibodies from baculovirus added for 1 h at room temperature, detected with anti-6xHis rabbit mAb; titer; conditions: both partners purified
T1 construct: spore wall protein 1 (SWP1) of Nosema bombycis, gene cloned by PCR into pGEX-4T-1 (BamH I / XhoI); also called rGST-SWP1; source: E. coli Rosetta, pGEX-4T-1, purified (Glutathione Sepharose)

[2] = target: T2, Nosema bombycis spore wall protein 1, native (Nosema bombycis (strain CQ1 / CVCC …, UniProt B3STN5)); test: Western blot; alkali-soluble germination (spore) proteins separated by SDS-PAGE on PVDF; culture supernatant or lysate of G9-Neo, scFvG9-Neo and NscFvG9-Neo BmE cells used as primary antibody; conditions: partners not purified
T2 construct: spore wall protein 1 (SWP1) of Nosema bombycis, gene locus NBO_552g0005; also called SWP1; native SWP1

[3] = target: T3, prokaryotic-expressed recombinant SWP1 (Nosema bombycis CVCC 102059, UniProt B3STN5); test: Western blot; rSWP1 separated by SDS-PAGE; hemolymph or cell lysate of transgenic silkworms used as primary antibody; conditions: one partner purified
T3 construct: spore wall protein 1 (SWP1) of Nosema bombycis, gene cloned by PCR from cDNA into pET30a (BamH I / HindIII); also called rSWP1; source: E. coli Rosetta, pET30a, purified (Ni-NTA)
T3 sequence (B3STN5 20-278): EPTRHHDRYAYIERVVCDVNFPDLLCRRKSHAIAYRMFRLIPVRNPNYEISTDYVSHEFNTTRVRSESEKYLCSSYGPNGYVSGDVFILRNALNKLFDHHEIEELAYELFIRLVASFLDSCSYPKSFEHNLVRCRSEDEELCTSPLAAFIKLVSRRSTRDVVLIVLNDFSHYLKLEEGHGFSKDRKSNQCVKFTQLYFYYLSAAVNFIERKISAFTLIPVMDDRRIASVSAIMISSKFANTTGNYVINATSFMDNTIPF

T2 sequence (B3STN5 20-278): as above
T1 sequence (B3STN5 20-278): as above

Binder | binding result [2] | binding result [3] | other results
B1 |  |  | binding result [1]: binds
B2 | binds |  | 
B3 |  | binds | 
B4 |  | binds | 
B5 | binds |  | 
B6 |  |  | binding result [1]: binds
B7 | binds |  | 
B8 |  | binds | 
